Results on three molecules are retold here after paper doi:10.1101/856021.

Read-outs that look alike come from different tables or passages of the source.

Common to all, as to experiment: ITC
In general terms: In ITC the heat of successive injections is recorded.

Assay [1] deals with PWWP domain of dP75 (residues 8-91) (Drosophila).
Assay [2] concerns the target dP75 IBD-containing C-terminus region (residues 209-445) (Drosophila).
Assay [3] has the same target. The source holds these as a separate data set.

As usually defined, the Kd is the constant that tells how readily two partners part at equilibrium. H3K36me3 peptide: the equilibrium dissociation constant (Kd) in assay [1] was > 500 µM.

As to “Jil-1 peptide from the proximal site (…; residues 984-1004)”, the Kd in assay [2] stood at 0.8 µM.

The molecule KREENFYGFSK [Jil-1 peptide at the distal site (…; residues 1102-1112)] returned a dissociation constant (Kd) in assay [3] of 120 µM.
